{
  "source": "the supplement of paper PMC10567573",
  "parents": {"B1": {"name": "TCEB3B (parent)", "chain": "STTALGDKQRKANESKGTRESWDS"}, "B2": {"name": "ZNF449 (parent)", "chain": "HKKKSPGEKPHRCPQCGKCFARKS"}},
  "data": [
    {"variants_of": "B1", "assay": "protein stability index of a GFP-peptide fusion (GPS, HEK-293T) (PSI 1-6); higher = more stable", "details": "c terminus: a fixed tail appended", "values": [
      {"variant": "STTALGDKQRKANESKGTREKWDS", "note": "[S21K]", "protein stability index": 4.97},
      {"variant": "STTALGDKQRKANESKGTREYWDS", "note": "[S21Y]", "protein stability index": 5.09},
      {"variant": "STTALGDKQRKANESKGTRENWDS", "note": "[S21N]", "protein stability index": 5.19},
      {"variant": "STTALGDKQRKANESKGTREWWDS", "note": "[S21W]", "protein stability index": 4.34},
      {"variant": "STTALGDKQRKANESKGTREMWDS", "note": "[S21M]", "protein stability index": 5.23},
      {"variant": "STTALGDKQRKANESKGTREVWDS", "note": "[S21V]", "protein stability index": 4.84},
      {"variant": "STTALGDKQRKANESKGTREIWDS", "note": "[S21I]", "protein stability index": 4.93},
      {"variant": "STTALGDKQRKANESKGTRECWDS", "note": "[S21C]", "protein stability index": 4.57},
      {"variant": "STTALGDKQRKANESKGTREQWDS", "note": "[S21Q]", "protein stability index": 5.22},
      {"variant": "STTALGDKQRKANESKGTRELWDS", "note": "[S21L]", "protein stability index": 4.99},
      {"variant": "STTALGDKQRKANESKGTRETWDS", "note": "[S21T]", "protein stability index": 3.57},
      {"variant": "STTALGDKQRKANESKGTREDWDS", "note": "[S21D]", "protein stability index": 5.1},
      {"variant": "STTALGDKQRKANESKGTREPWDS", "note": "[S21P]", "protein stability index": 5.24},
      {"variant": "STTALGDKQRKANESKGTREGWDS", "note": "[S21G]", "protein stability index": 5.25},
      {"variant": "STTALGDKQRKANESKGTREFWDS", "note": "[S21F]", "protein stability index": 4.18},
      {"variant": "STTALGDKQRKANESKGTREHWDS", "note": "[S21H]", "protein stability index": 5.02},
      {"variant": "STTALGDKQRKANESKGTRERWDS", "note": "[S21R]", "protein stability index": 4.82},
      {"variant": "STTALGDKQRKANESKGTREEWDS", "note": "[S21E]", "protein stability index": 4.99},
      {"variant": "STTALGDKQRKANESKGTREAWDS", "note": "[S21A]", "protein stability index": 5.05},
      {"variant": "STTALGDKQRKANESKGTRESNDS", "note": "[W22N]", "protein stability index": 5.83},
      {"variant": "STTALGDKQRKANESKGTRESSDS", "note": "[W22S]", "protein stability index": 4.29},
      {"variant": "STTALGDKQRKANESKGTRESLDS", "note": "[W22L]", "protein stability index": 5.25},
      {"variant": "STTALGDKQRKANESKGTRESPDS", "note": "[W22P]", "protein stability index": 5.54},
      {"variant": "STTALGDKQRKANESKGTRESRDS", "note": "[W22R]", "protein stability index": 5.82},
      {"variant": "STTALGDKQRKANESKGTRESEDS", "note": "[W22E]", "protein stability index": 5.67},
      {"variant": "STTALGDKQRKANESKGTRESTDS", "note": "[W22T]", "protein stability index": 5.24},
      {"variant": "STTALGDKQRKANESKGTRESGDS", "note": "[W22G]", "protein stability index": 5.53},
      {"variant": "STTALGDKQRKANESKGTRESADS", "note": "[W22A]", "protein stability index": 5.29},
      {"variant": "STTALGDKQRKANESKGTRESCDS", "note": "[W22C]", "protein stability index": 5.1},
      {"variant": "STTALGDKQRKANESKGTRESHDS", "note": "[W22H]", "protein stability index": 5.45},
      {"variant": "STTALGDKQRKANESKGTRESYDS", "note": "[W22Y]", "protein stability index": 5.6},
      {"variant": "STTALGDKQRKANESKGTRESDDS", "note": "[W22D]", "protein stability index": 5.42},
      {"variant": "STTALGDKQRKANESKGTRESVDS", "note": "[W22V]", "protein stability index": 5.12},
      {"variant": "STTALGDKQRKANESKGTRESFDS", "note": "[W22F]", "protein stability index": 5.38},
      {"variant": "STTALGDKQRKANESKGTRESQDS", "note": "[W22Q]", "protein stability index": 5.47},
      {"variant": "STTALGDKQRKANESKGTRESMDS", "note": "[W22M]", "protein stability index": 5.53},
      {"variant": "STTALGDKQRKANESKGTRESKDS", "note": "[W22K]", "protein stability index": 5.7},
      {"variant": "STTALGDKQRKANESKGTRESIDS", "note": "[W22I]", "protein stability index": 5.53},
      {"variant": "STTALGDKQRKANESKGTRTSWDS", "note": "[E20T]", "protein stability index": 4.86},
      {"variant": "STTALGDKQRKANESKGTRVSWDS", "note": "[E20V]", "protein stability index": 4.32},
      {"variant": "STTALGDKQRKANESKGTRYSWDS", "note": "[E20Y]", "protein stability index": 4.92},
      {"variant": "STTALGDKQRKANESKGTRSSWDS", "note": "[E20S]", "protein stability index": 4.88},
      {"variant": "STTALGDKQRKANESKGTRWSWDS", "note": "[E20W]", "protein stability index": 4.5},
      {"variant": "STTALGDKQRKANESKGTRESWTS", "note": "[D23T]", "protein stability index": 1.05},
      {"variant": "STTALGDKQRKANESKGTRESWWS", "note": "[D23W]", "protein stability index": 3.59},
      {"variant": "STTALGDKQRKANESKGTRESWLS", "note": "[D23L]", "protein stability index": 1.98},
      {"variant": "STTALGDKQRKANESKGTRESWGS", "note": "[D23G]", "protein stability index": 2.83},
      {"variant": "STTALGDKQRKANESKGTRESWVS", "note": "[D23V]", "protein stability index": 2.56},
      {"variant": "STTALGDKQRKANESKGTRESWCS", "note": "[D23C]", "protein stability index": 1.98},
      {"variant": "STTALGDKQRKANESKGTRESWPS", "note": "[D23P]", "protein stability index": 4.76},
      {"variant": "STTALGDKQRKANESKGTRESWHS", "note": "[D23H]", "protein stability index": 3.81},
      {"variant": "STTALGDKQRKANESKGTRESWFS", "note": "[D23F]", "protein stability index": 3.93},
      {"variant": "STTALGDKQRKANESKGTRESWSS", "note": "[D23S]", "protein stability index": 1.78},
      {"variant": "STTALGDKQRKANESKGTRESWIS", "note": "[D23I]", "protein stability index": 2.69},
      {"variant": "STTALGDKQRKANESKGTRESWYS", "note": "[D23Y]", "protein stability index": 4.07},
      {"variant": "STTALGDKQRKANESKGTRESWNS", "note": "[D23N]", "protein stability index": 4.15},
      {"variant": "STTALGDKQRKANESKGTRESWES", "note": "[D23E]", "protein stability index": 1.82},
      {"variant": "STTALGDKQRKANESKGTRESWQS", "note": "[D23Q]", "protein stability index": 3.51},
      {"variant": "STTALGDKQRKANESKGTRESWRS", "note": "[D23R]", "protein stability index": 2.13},
      {"variant": "STTALGDKQRKANESKGTRESWKS", "note": "[D23K]", "protein stability index": 2.47},
      {"variant": "STTALGDKQRKANESKGTRESWMS", "note": "[D23M]", "protein stability index": 2.32},
      {"variant": "STTALGDKQRKANESKGTRESWAS", "note": "[D23A]", "protein stability index": 4.65},
      {"variant": "STTALGDKQRKANESKGTRESWDT", "note": "[S24T]", "protein stability index": 4.58},
      {"variant": "STTALGDKQRKANESKGTRESWDH", "note": "[S24H]", "protein stability index": 3.97},
      {"variant": "STTALGDKQRKANESKGTRESWDD", "note": "[S24D]", "protein stability index": 4.54},
      {"variant": "STTALGDKQRKANESKGTRESWDV", "note": "[S24V]", "protein stability index": 4.62},
      {"variant": "STTALGDKQRKANESKGTRESWDM", "note": "[S24M]", "protein stability index": 4.34},
      {"variant": "STTALGDKQRKANESKGTRESWDK", "note": "[S24K]", "protein stability index": 4.17},
      {"variant": "STTALGDKQRKANESKGTRESWDY", "note": "[S24Y]", "protein stability index": 4.46},
      {"variant": "STTALGDKQRKANESKGTRESWDC", "note": "[S24C]", "protein stability index": 4.07},
      {"variant": "STTALGDKQRKANESKGTRESWDW", "note": "[S24W]", "protein stability index": 4.59},
      {"variant": "STTALGDKQRKANESKGTRESWDQ", "note": "[S24Q]", "protein stability index": 3.84},
      {"variant": "STTALGDKQRKANESKGTRESWDI", "note": "[S24I]", "protein stability index": 4.26},
      {"variant": "STTALGDKQRKANESKGTRESWDL", "note": "[S24L]", "protein stability index": 4.37},
      {"variant": "STTALGDKQRKANESKGTRESWDP", "note": "[S24P]", "protein stability index": 4.99},
      {"variant": "STTALGDKQRKANESKGTRESWDG", "note": "[S24G]", "protein stability index": 4.89},
      {"variant": "STTALGDKQRKANESKGTRESWDA", "note": "[S24A]", "protein stability index": 4.38},
      {"variant": "STTALGDKQRKANESKGTRESWDF", "note": "[S24F]", "protein stability index": 4.38},
      {"variant": "STTALGDKQRKANESKGTRESWDE", "note": "[S24E]", "protein stability index": 3.93},
      {"variant": "STTALGDKQRKANESKGTRESWDN", "note": "[S24N]", "protein stability index": 4.57},
      {"variant": "STTALGDKQRKANESKGTRESWDR", "note": "[S24R]", "protein stability index": 3.94}
    ]},
    {"variants_of": "B2", "assay": "protein stability index of a GFP-peptide fusion (GPS, HEK-293T) (PSI 1-6); higher = more stable", "details": "c terminus: a fixed tail appended", "values": [
      {"variant": "WKKKSPGEKPHRCPQCGKCFARKS", "note": "[H1W]", "protein stability index": 2.7},
      {"variant": "IKKKSPGEKPHRCPQCGKCFARKS", "note": "[H1I]", "protein stability index": 2.06},
      {"variant": "DKKKSPGEKPHRCPQCGKCFARKS", "note": "[H1D]", "protein stability index": 3.73},
      {"variant": "CKKKSPGEKPHRCPQCGKCFARKS", "note": "[H1C]", "protein stability index": 3.85},
      {"variant": "RKKKSPGEKPHRCPQCGKCFARKS", "note": "[H1R]", "protein stability index": 3.53},
      {"variant": "NKKKSPGEKPHRCPQCGKCFARKS", "note": "[H1N]", "protein stability index": 4.13},
      {"variant": "VKKKSPGEKPHRCPQCGKCFARKS", "note": "[H1V]", "protein stability index": 3.15},
      {"variant": "KKKKSPGEKPHRCPQCGKCFARKS", "note": "[H1K]", "protein stability index": 3.5},
      {"variant": "GKKKSPGEKPHRCPQCGKCFARKS", "note": "[H1G]", "protein stability index": 3.68},
      {"variant": "TKKKSPGEKPHRCPQCGKCFARKS", "note": "[H1T]", "protein stability index": 2.88},
      {"variant": "AKKKSPGEKPHRCPQCGKCFARKS", "note": "[H1A]", "protein stability index": 3.37},
      {"variant": "SKKKSPGEKPHRCPQCGKCFARKS", "note": "[H1S]", "protein stability index": 4.38},
      {"variant": "LKKKSPGEKPHRCPQCGKCFARKS", "note": "[H1L]", "protein stability index": 2.54}
    ]}
  ]
}
